Source: patent US20090324603A1 (VAN ANDEL RESEARCH INSTITUTE, published 2009)

Tests used:
[1] = biological target: T1, recombinant c-Met antigen (human, UniProt P08581 25-932, limits assumed); assay: non-competitive ELISA, Kd of scFv-S1 against Kd of the original Fab
T1 construct: also called immobilized Met antigen; human Met antigen
Protocol: (§1) The most commonly used formula was established by David Beatty and the equation was Kaff=(n−1)/(2{n[Ab′]ₜ−[Ab]ₜ}) (n=[Ag]/[Ag′]). This method utilized OD-50 of the sigmoid curve and obviated the need for affinity purification of antibody used as standard. Using serial dilutions of both antigen ([Ag], [Ag′]) and antibody (scFv antibody), the affinity constant (Kaff) was measured by non-competitive ELISA. Two sigmoid curves of optical density (OD) versus logarithms of antibody concentrations were estimated by SPSS 10.0 software. The maximum value of OD (OD-100) of each curve was computed respectively and OD-50, half of OD-100, was obtained. Then the concentrations of antibody corresponding to OD-50 on the curves, named [Ab]ₜ and [Ab′]ₜ were calculated. For [Ag′]=½[Ag], Kaff=1/{2[Ab′]ₜ−[Ab]ₜ}.

[2] = biological target: T1, recombinant c-Met antigen; assay: non-competitive ELISA with serial dilutions of both Met and scFv (Beatty method)
Protocol: as §1

[3] = biological target: human c-Met (HGF/SF receptor) on S114 and MKN45 cells (human, UniProt P08581 25-1390); assay: cell-based or functional assay
Chain of human c-Met (HGF/SF receptor) on S114 and MKN45 cells (P08581 25-1390): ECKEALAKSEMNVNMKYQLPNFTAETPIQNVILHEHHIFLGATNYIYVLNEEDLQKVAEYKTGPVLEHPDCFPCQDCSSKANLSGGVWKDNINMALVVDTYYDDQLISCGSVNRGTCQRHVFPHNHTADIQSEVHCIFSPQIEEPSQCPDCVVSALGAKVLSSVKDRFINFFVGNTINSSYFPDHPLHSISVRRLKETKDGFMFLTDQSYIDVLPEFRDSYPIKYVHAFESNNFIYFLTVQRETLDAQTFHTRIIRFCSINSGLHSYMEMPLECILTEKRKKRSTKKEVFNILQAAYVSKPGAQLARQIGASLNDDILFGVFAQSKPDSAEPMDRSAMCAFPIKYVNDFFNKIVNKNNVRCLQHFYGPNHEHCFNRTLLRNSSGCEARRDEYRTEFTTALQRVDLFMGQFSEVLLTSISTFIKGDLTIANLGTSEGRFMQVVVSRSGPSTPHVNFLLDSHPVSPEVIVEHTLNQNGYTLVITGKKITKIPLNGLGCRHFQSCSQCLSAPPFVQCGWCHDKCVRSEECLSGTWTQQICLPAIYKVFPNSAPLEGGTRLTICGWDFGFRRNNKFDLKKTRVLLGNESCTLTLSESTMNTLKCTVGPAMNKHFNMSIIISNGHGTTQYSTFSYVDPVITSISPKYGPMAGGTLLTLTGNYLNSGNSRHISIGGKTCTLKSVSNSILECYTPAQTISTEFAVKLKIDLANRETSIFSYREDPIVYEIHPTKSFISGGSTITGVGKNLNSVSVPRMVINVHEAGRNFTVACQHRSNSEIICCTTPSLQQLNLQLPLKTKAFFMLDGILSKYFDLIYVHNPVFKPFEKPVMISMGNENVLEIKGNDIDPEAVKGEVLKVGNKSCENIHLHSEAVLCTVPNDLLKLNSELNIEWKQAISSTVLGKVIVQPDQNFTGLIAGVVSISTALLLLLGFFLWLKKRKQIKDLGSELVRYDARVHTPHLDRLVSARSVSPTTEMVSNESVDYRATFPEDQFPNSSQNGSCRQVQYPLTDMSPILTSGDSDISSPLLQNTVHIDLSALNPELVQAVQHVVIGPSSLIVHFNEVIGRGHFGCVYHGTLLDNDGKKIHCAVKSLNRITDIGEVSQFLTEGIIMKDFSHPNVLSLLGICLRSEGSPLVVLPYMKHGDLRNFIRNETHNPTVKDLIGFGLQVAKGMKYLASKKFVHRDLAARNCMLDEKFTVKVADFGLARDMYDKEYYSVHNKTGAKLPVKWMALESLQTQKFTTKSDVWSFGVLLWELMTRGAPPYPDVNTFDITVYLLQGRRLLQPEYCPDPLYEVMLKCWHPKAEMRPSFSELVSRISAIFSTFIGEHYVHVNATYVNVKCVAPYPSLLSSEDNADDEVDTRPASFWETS

T1 sequence (P08581 25-932 limits assumed): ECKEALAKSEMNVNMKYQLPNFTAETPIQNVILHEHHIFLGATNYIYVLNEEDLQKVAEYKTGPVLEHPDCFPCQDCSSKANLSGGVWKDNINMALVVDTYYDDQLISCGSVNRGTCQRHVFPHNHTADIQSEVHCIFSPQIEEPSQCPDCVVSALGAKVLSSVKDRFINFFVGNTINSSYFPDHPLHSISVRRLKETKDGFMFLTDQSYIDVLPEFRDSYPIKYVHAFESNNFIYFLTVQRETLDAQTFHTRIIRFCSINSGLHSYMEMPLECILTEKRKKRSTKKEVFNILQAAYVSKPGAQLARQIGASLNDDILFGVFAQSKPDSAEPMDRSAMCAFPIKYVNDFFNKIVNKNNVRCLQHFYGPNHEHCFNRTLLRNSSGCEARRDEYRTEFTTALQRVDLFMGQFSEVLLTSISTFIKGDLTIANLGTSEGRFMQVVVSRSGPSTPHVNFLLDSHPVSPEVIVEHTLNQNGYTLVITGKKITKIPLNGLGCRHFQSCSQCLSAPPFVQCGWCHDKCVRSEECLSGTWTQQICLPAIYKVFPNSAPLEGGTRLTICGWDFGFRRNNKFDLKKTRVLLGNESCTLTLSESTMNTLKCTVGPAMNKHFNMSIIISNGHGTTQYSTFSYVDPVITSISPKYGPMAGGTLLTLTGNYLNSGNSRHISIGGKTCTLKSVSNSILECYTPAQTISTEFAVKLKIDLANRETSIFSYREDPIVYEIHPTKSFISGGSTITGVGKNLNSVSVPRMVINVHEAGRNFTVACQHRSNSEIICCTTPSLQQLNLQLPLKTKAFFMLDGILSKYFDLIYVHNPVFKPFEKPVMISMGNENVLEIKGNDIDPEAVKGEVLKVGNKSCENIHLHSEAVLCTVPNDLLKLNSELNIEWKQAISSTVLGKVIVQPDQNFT

Row | Binder | fold increase in affinity against the original Fab [1] [times] | Kd [2] [nM] | inhibition ratio of S114 cells incubated with 800 ng Fab and Hum-ZAP, 72 hrs [3] [%] | inhibition ratio of S114 cells incubated with 800 ng Fab and Hum-ZAP, 96 hrs [3] [%]
1 | anti-Met scFv-S1 (scFv, also called scFv Si; S1 phage) scFv: ELQMTQSPSLLSASTGDRVTISCRASQSISSYLNWYQQKPGKAPKLLIYTRSSLQSGVPSRFSGSGSGTDFTLTISSLQPEDFATYYCQQSYSTPHTFGQGTKLEIKGGSSRSSSSGGGGSGGGGEVQLVESGGGVVQPGRSLRLSCAASGFTFSSYAMHWVRQAPGKGLEWVAVIWYDGSNRYYADSVKGRFTISRDNSKNTLYLQMNSLRAEDTAVYYCASQATEGLIWGQGTLVTVSP | 117 | 51.5 | – | –
2 | anti-Met Fab-Met-2 (Fab, V domains shown) VH: EVQLVESGGGVVQPGRSLRLSCAASGFTFSSYAMHWVRQAPGKGLEWVAVIWYDGSNRYYADSVKGRFTISRDNSKNTLYLQMNSLRAEDTAVYYCASQATEGLIWGQGTLVTVSP VL: ELQMTQSPSLLSASTGDRVTISCRASQSISSYLNWYQQKPGKAPKLLIYTRSSLQSGVPSRFSGSGSGTDFTLTISSLQPEDFATYYCQQSYSTPHTFGQGTKLEIKR | – | – | 73.8 | 62.7
